Numbering of substitutions follows the chain as printed. Several values for one entry are separate records, joined by “and”; a condition that tells them apart may be missing. Equal values may be shown once.
B1: 104L1, 72A (protein, listed as Rattus norvegicus)
chain: AFDGTWKVDRNENYEKFMEKMGINVVKRKLGAHDNLKLTITQEGNKFTVKESSNFRNIDVVFELGVDFAYSAADGTELTGTWTMEGNKLVGKFKRVDNGKELILVREISGNELIQTYTYEGVEAKRIFKKE
modifications: PEPTIDE (1)...(131) wild-type rat intestinal fatty acid binding protein
B2: 104R, 72A (protein, listed as Rattus norvegicus)
chain: B1 chain with L104R
modifications: PEPTIDE (1)...(131) wild-type rat intestinal fatty acid binding protein
B3: 106V1, 72A (protein, listed as Rattus norvegicus)
chain: B1 chain with L104A, R106V
modifications: PEPTIDE (1)...(131) wild-type rat intestinal fatty acid binding protein
B4: 106S2, 72A (protein, listed as Rattus norvegicus)
chain: B1 chain with L104A, R106S
modifications: PEPTIDE (1)...(131) wild-type rat intestinal fatty acid binding protein
B5: 104V1, 72A (protein, listed as Rattus norvegicus)
chain: B1 chain with L104V
modifications: PEPTIDE (1)...(131) wild-type rat intestinal fatty acid binding protein
B6: 106Q, 72A (protein, listed as Rattus norvegicus)
chain: B1 chain with L104A, R106Q
modifications: PEPTIDE (1)...(131) wild-type rat intestinal fatty acid binding protein
B7: 106H2, 72A (protein, listed as Rattus norvegicus)
chain: B1 chain with L104A, R106H
modifications: PEPTIDE (1)...(131) wild-type rat intestinal fatty acid binding protein
B8: 106F1, 72A (protein, listed as Rattus norvegicus)
chain: B1 chain with L104A, R106F
modifications: PEPTIDE (1)...(131) wild-type rat intestinal fatty acid binding protein
B9: 106I3, 72A (protein, listed as Rattus norvegicus)
chain: B1 chain with L104A, R106I
modifications: PEPTIDE (1)...(131) wild-type rat intestinal fatty acid binding protein
B10: 104Y1, 72A (protein, listed as Rattus norvegicus)
chain: B1 chain with L104Y
modifications: PEPTIDE (1)...(131) wild-type rat intestinal fatty acid binding protein
B11: 106Y1, 72A (protein, listed as Rattus norvegicus)
chain: B1 chain with L104A, R106Y
modifications: PEPTIDE (1)...(131) wild-type rat intestinal fatty acid binding protein
B12: 104T1, 72A (protein, listed as Rattus norvegicus)
chain: B1 chain with L104T
modifications: PEPTIDE (1)...(131) wild-type rat intestinal fatty acid binding protein
B13: 106T2, 72A (protein, listed as Rattus norvegicus)
chain: B1 chain with L104A, R106T
modifications: PEPTIDE (1)...(131) wild-type rat intestinal fatty acid binding protein
B14: 113M, 72A (protein, listed as Rattus norvegicus)
chain: B1 chain with L104A, L113M
modifications: PEPTIDE (1)...(131) wild-type rat intestinal fatty acid binding protein
B15: 106W, 72A (protein, listed as Rattus norvegicus)
chain: B1 chain with L104A, R106W
modifications: PEPTIDE (1)...(131) wild-type rat intestinal fatty acid binding protein
B16: 106D3, 72A (protein, listed as Rattus norvegicus)
chain: B1 chain with L104A, R106D
modifications: PEPTIDE (1)...(131) wild-type rat intestinal fatty acid binding protein
B17: 106C2, 72A (protein, listed as Rattus norvegicus)
chain: B1 chain with L104A, R106C
modifications: PEPTIDE (1)...(131) wild-type rat intestinal fatty acid binding protein
B18: 106A1, 72A (protein, listed as Rattus norvegicus)
chain: B1 chain with L104A, R106A
modifications: PEPTIDE (1)...(131) wild-type rat intestinal fatty acid binding protein
B19: 106L3, 72A (protein, listed as Rattus norvegicus)
chain: B1 chain with L104A, R106L
modifications: PEPTIDE (1)...(131) wild-type rat intestinal fatty acid binding protein
B20: 104R1, 72A (protein, listed as Rattus norvegicus)
chain: B1 chain with L104R
modifications: PEPTIDE (1)...(131) wild-type rat intestinal fatty acid binding protein
B21: 106N1, 72A (protein, listed as Rattus norvegicus)
chain: B1 chain with L104A, R106N
modifications: PEPTIDE (1)...(131) wild-type rat intestinal fatty acid binding protein
B22: 104N1, 72A (protein, listed as Rattus norvegicus)
chain: B1 chain with L104N
modifications: PEPTIDE (1)...(131) wild-type rat intestinal fatty acid binding protein
B23: 104S2, 72A (protein, listed as Rattus norvegicus)
chain: B1 chain with L104S
modifications: PEPTIDE (1)...(131) wild-type rat intestinal fatty acid binding protein

Test: Probe fluorescence ratio response to arachidonic acid relative to ADIFAB2
Assay type: binding
Conditions: arachidonic acid; response relative to ADIFAB2
Method in brief: (§1)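 Fluorescently labeled rat intestinal FABP variants were read at two emission wavelengths, near the unbound maximum (about 420 to 480 nm) and the FFA-bound maximum (about 495 to 580 nm). R = Fλ1/Fλ2 after subtracting probe-free intensity; ΔR = R+agent − R0, normalized to ADIFAB2 (rI-FABP-L72A).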

Molecule | DR/DR AA
B1 | 0.38
B2 | 1.18 and 1.075
B3 | 0.61
B4 | 0.32
B5 | 0.63
B6 | 0.37
B7 | 0.75
B8 | 0.75
B9 | 0.59
B10 | 0.36
B11 | 0.57
B12 | 1.01
B13 | 0.43
B14 | 1.33
B15 | 1.11 and 1.106
B16 | 0.66
B17 | 0.17
B18 | 0.39
B19 | 0.84
B20 | 1.14
B21 | 0.38
B22 | 1.14
B23 | 1.64

Test: Probe fluorescence ratio response to linolenic acid relative to ADIFAB2
Assay type: binding
Conditions: response relative to ADIFAB2
Method in brief: as §1

Molecule | DR/DR LNA
B1 | 0.42
B2 | 0.96 and 0.904
B3 | 0.82
B4 | 0.40
B5 | 0.73
B6 | 0.38
B7 | 0.73
B8 | 0.71
B9 | 0.71
B10 | 0.28
B11 | 0.60
B12 | 1.07
B13 | 0.58
B14 | 1.38
B15 | 1.03
B16 | 0.77
B17 | 0.22
B18 | 0.52
B19 | 0.84
B20 | 1.13
B21 | 0.44
B22 | 1.06
B23 | 1.54

Test: Probe fluorescence ratio response to linoleic acid relative to ADIFAB2
Assay type: binding
Conditions: response relative to ADIFAB2
Method in brief: as §1

Molecule | DR/DR LA
B1 | 0.39
B2 | 0.93 and 0.962
B3 | 0.82
B4 | 0.36
B5 | 0.73
B6 | 0.36
B7 | 0.78
B8 | 0.78
B9 | 0.68
B10 | 0.26
B11 | 0.61
B12 | 1.16
B13 | 0.47
B14 | 1.46
B15 | 1.04 and 1.042
B16 | 0.80
B17 | 0.20
B18 | 0.51
B19 | 0.87
B20 | 1.22
B21 | 0.45
B22 | 0.67
B23 | 1.71

Test: Probe fluorescence ratio response to oleic acid relative to ADIFAB2
Assay type: binding
Conditions: response relative to ADIFAB2
Method in brief: as §1

Molecule | DR/DR OA
B1 | 0.48
B2 | 0.88 and 0.957
B3 | 0.84
B4 | 0.48
B5 | 0.76
B6 | 0.39
B7 | 0.82
B8 | 0.78
B9 | 0.72
B10 | 0.24
B11 | 0.60
B12 | 1.10
B13 | 0.53
B14 | 1.42
B15 | 0.99 and 0.991
B16 | 0.64
B17 | 0.22
B18 | 0.60
B19 | 0.87
B20 | 1.20
B21 | 0.50
B22 | 0.71
B23 | 1.66

Test: Probe fluorescence ratio response to palmitic acid relative to ADIFAB2
Assay type: binding
Conditions: response relative to ADIFAB2
Method in brief: as §1

Molecule | DR/DR PA
B1 | 0.31
B2 | 0.52 and 0.791
B3 | 0.32
B4 | 0.15
B5 | 0.63
B6 | 0.18
B7 | 0.33
B8 | 0.38
B9 | 0.29
B10 | 0.14
B11 | 0.27
B12 | 0.99
B13 | 0.23
B14 | 1.19
B15 | 0.41 and 0.407
B16 | 0.26
B17 | 0.09
B18 | 0.16
B19 | 0.43
B20 | 1.00
B21 | 0.15
B22 | 0.52
B23 | 1.57

Reference: patent US20060257938A1, “Method of screening for drugs that block ligand binding to a lipid binding protein” (priority 2005, published 2006)
